Experimental data published in patent US20250011468A1 (Novo Nordisk, published 2025).

Assays:
[1] = target: T1, human plasma-derived FIXa (Haematologic Technologies Inc) (human, UniProt P00740 47-191; P00740 227-461); experiment: cell-based or functional assay
[2] = target: T1, human plasma-derived FIXa (Haematologic …); experiment: cell-based or functional assay; remark: listed apart in the source
[3] = target: desGla-desEGF1-FX Y230A (human, UniProt P00742 126-488); experiment: SPR (Biacore T200), antibody captured by anti-hIgG Fc, FX variant injected (10 µM); % of wild-type binding
Method: Identification of hot-spot epitope residues was done using a Biacore T200 instrument at 25° C. Anti-hIgG Fc antibody from the Human Antibody Capture Kit (GE Healthcare, Catalogue #BR100839) at 2 μg/ml was immobilized on a Series S Sensor Chip CM5 (GE Healthcare, Catalogue #BR100530) using standard amine coupling chemistry. The anti-FX antibody mAb4-6934 (monovalent variant of mAb1-6723) was injected at the flow rate of 5 μL/min for 30 sec and captured by the immobilized anti-hIgG Fc antibody. […] Binding data were analyzed using steady-state fitting according to the 1:1 model in the Biacore Evaluation Software 2.0 supplied by GE Healthcare. Binding data are reported as % binding of FX variants to the anti-FX antibody (monovalent mAb1-6723) relative to binding of the wild-type FX to the anti-FX antibody at 5 or 10 μM FX variants injected and are calculated according to the formula: […]

[4] = target: desGla-desEGF1-FX T428A (human, UniProt P00742 126-488); experiment: SPR (Biacore T200), antibody captured by anti-hIgG Fc, FX variant injected; % of wild-type binding
[5] = target: desGla-desEGF1-FX E305A (human, UniProt P00742 126-488); experiment: as above
[6] = target: desGla-desEGF1-FX T116A (human, UniProt P00742 126-488); experiment: as above
[7] = target: desGla-desEGF1-FX T127A (human, UniProt P00742 126-488); experiment: as above
[8] = target: desGla-desEGF1-FX F229A (human, UniProt P00742 126-488); experiment: as above
[9] = target: desGla-desEGF1-FX E103A (human, UniProt P00742 126-488); experiment: as above
[10] = target: desGla-desEGF1-FX H101A (human, UniProt P00742 126-488); experiment: as above
[11] = target: desGla-desEGF1-FX R287A (human, UniProt P00742 126-488); experiment: as above
[12] = target: desGla-desEGF1-FX A118S (human, UniProt P00742 126-488); experiment: as above
[13] = target: desGla-desEGF1-FX E228A (human, UniProt P00742 126-488); experiment: as above
[14] = target: desGla-desEGF1-FX R113A (human, UniProt P00742 126-488); experiment: as above
[15] = target: T2, wild-type desGla-desEGF1-FX (human, UniProt P00742 126-488); experiment: as above
T2 construct: Expressed in HEK293; also called WT; desGLA-desEGF1-hFX

[16] = target: desGla-desEGF1-FX S227A (human, UniProt P00742 126-488); experiment: as above
[17] = target: desGla-desEGF1-FX E266A (human, UniProt P00742 126-488); experiment: as above
[18] = target: desGla-desEGF1-FX K420A (human, UniProt P00742 126-488); experiment: as above
[19] = target: desGla-desEGF1-FX L419A (human, UniProt P00742 126-488); experiment: as above
Sequence of desGla-desEGF1-FX L419A (P00742 other isoform, or with tags, fused parts or gaps L419A L419A): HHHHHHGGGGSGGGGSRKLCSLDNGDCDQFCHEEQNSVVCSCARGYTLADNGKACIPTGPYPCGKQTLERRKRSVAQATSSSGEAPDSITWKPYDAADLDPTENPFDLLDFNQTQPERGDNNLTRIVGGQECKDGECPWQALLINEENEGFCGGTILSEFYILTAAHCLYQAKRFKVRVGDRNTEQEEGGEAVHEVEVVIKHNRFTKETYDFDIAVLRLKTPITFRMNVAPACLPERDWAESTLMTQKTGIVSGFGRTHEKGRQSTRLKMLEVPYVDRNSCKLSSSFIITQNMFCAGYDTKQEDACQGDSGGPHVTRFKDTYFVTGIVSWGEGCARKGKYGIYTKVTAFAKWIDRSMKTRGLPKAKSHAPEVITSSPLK

T1 sequence (P00740 47-191, chain 1 of 2): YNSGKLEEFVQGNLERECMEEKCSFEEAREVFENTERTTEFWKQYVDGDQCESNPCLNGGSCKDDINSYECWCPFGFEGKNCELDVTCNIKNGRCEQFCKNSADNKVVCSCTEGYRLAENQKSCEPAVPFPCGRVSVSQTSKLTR
T1 sequence (P00740 227-461, chain 2 of 2): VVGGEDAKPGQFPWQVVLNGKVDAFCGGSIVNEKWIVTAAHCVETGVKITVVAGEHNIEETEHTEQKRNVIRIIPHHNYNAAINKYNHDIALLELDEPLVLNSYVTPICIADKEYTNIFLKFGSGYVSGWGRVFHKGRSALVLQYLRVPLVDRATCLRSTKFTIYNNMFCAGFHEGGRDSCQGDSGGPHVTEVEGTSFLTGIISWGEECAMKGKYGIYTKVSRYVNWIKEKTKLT
Sequence of desGla-desEGF1-FX R287A (P00742 other isoform, or with tags, fused parts or gaps R287A R287A): as the sequence (P00742 other isoform, or with tags, fused parts or gaps L419A L419A) above, with R218A, A350L counted along it
Sequence of desGla-desEGF1-FX F229A (P00742 other isoform, or with tags, fused parts or gaps F229A F229A): as the sequence (P00742 other isoform, or with tags, fused parts or gaps L419A L419A) above, with F160A, A350L counted along it
Sequence of desGla-desEGF1-FX T127A (P00742 other isoform, or with tags, fused parts or gaps T127A T127A): as the sequence (P00742 other isoform, or with tags, fused parts or gaps L419A L419A) above, with T58A, A350L counted along it
Sequence of desGla-desEGF1-FX K420A (P00742 other isoform, or with tags, fused parts or gaps K420A K420A): as the sequence (P00742 other isoform, or with tags, fused parts or gaps L419A L419A) above, with A350L, K351A counted along it
Sequence of desGla-desEGF1-FX H101A (P00742 other isoform, or with tags, fused parts or gaps H101A H101A): as the sequence (P00742 other isoform, or with tags, fused parts or gaps L419A L419A) above, with H32A, A350L counted along it
Sequence of desGla-desEGF1-FX S227A (P00742 other isoform, or with tags, fused parts or gaps S227A S227A): as the sequence (P00742 other isoform, or with tags, fused parts or gaps L419A L419A) above, with S158A, A350L counted along it
Sequence of desGla-desEGF1-FX R113A (P00742 other isoform, or with tags, fused parts or gaps R113A R113A): as the sequence (P00742 other isoform, or with tags, fused parts or gaps L419A L419A) above, with R44A, A350L counted along it
Sequence of desGla-desEGF1-FX A118S (P00742 other isoform, or with tags, fused parts or gaps A118S A118S): as the sequence (P00742 other isoform, or with tags, fused parts or gaps L419A L419A) above, with A49S, A350L counted along it
Sequence of desGla-desEGF1-FX T428A (P00742 other isoform, or with tags, fused parts or gaps T428A T428A): as the sequence (P00742 other isoform, or with tags, fused parts or gaps L419A L419A) above, with A350L, T359A counted along it
Sequence of desGla-desEGF1-FX E103A (P00742 other isoform, or with tags, fused parts or gaps E103A E103A): as the sequence (P00742 other isoform, or with tags, fused parts or gaps L419A L419A) above, with E34A, A350L counted along it
Sequence of desGla-desEGF1-FX E305A (P00742 other isoform, or with tags, fused parts or gaps E305A E305A): as the sequence (P00742 other isoform, or with tags, fused parts or gaps L419A L419A) above, with E236A, A350L counted along it
Sequence of desGla-desEGF1-FX E228A (P00742 other isoform, or with tags, fused parts or gaps E228A E228A): as the sequence (P00742 other isoform, or with tags, fused parts or gaps L419A L419A) above, with E159A, A350L counted along it
T2 sequence (P00742 other isoform, or with tags, fused parts or gaps): as the sequence (P00742 other isoform, or with tags, fused parts or gaps L419A L419A) above, with A350L counted along it
Sequence of desGla-desEGF1-FX T116A (P00742 other isoform, or with tags, fused parts or gaps T116A T116A): as the sequence (P00742 other isoform, or with tags, fused parts or gaps L419A L419A) above, with T47A, A350L counted along it
Sequence of desGla-desEGF1-FX E266A (P00742 other isoform, or with tags, fused parts or gaps E266A E266A): as the sequence (P00742 other isoform, or with tags, fused parts or gaps L419A L419A) above, with E197A, A350L counted along it
Sequence of desGla-desEGF1-FX Y230A (P00742 other isoform, or with tags, fused parts or gaps Y230A Y230A): as the sequence (P00742 other isoform, or with tags, fused parts or gaps L419A L419A) above, with Y161A, A350L counted along it

B1: mAb1-4861 (antibody, V domains shown)
VH: EVQLVESGGGLVQPGRSLKLSCAASGFTFDDYAMHWVRQVPGKGLEWVSGISWNGDNIGYVDSVKGRFTISRDNAKNSLYLQLNSLRAEDTALYYCVKSYGSGSFYNAFDSWGQGTLVTVSS
VL: DIQMTQSPSTLSASAGDRVTITCRASQSISSWLAWYQQKPGKAPKFLIYKASRLERGVPSRFSGSGSGTEFSLTISSLQPDDFATYYCLEYSSYIRTFGQGTKVEIK
FXa generation rate at 3.2 nM mAb [1]: 434 pM/min
FXa generation rate at 6.3 nM mAb [1]: 415 pM/min
FXa generation rate at 12.5 nM mAb [1]: 385 pM/min
FXa generation rate at 25 nM mAb [1]: 382 pM/min
FXa generation rate at 50 nM mAb [1]: 352 pM/min
FXa generation rate at 100 nM mAb [1]: 364 pM/min
FXa generation rate at 200 nM mAb [1]: 411 pM/min
Peak stimulatory activity relative to 224F3 [2]: 21.7 fold relative to 224F3

B2: mAb1-4624 (antibody, V domains shown)
VH: EVQLVQSGAEVKKPGESLRISCKGSGYRFTSYWIGWVRQMPGKGLEWMGMIDPTDSYTDYGPSFRGHVTISADKSISTAYLQWSSLKASDTAMYYCARVRIMSGAFDIWGQGTMVTVSS
VL: DIVMTQSPLSLPVTPGEPASISCRSSQSLLHSTWYNYLNWYLQKPGQSPQLLIYLGSNRASGVPDRFSGSGSGTDFTLKISRVEAEDVGVYYCMQVLHIPYTFGQGTKLEIK
FXa generation rate at 3.2 nM mAb [1]: 383 pM/min
FXa generation rate at 6.3 nM mAb [1]: 550 pM/min
FXa generation rate at 12.5 nM mAb [1]: 752 pM/min
FXa generation rate at 25 nM mAb [1]: 851 pM/min
FXa generation rate at 50 nM mAb [1]: 989 pM/min
FXa generation rate at 100 nM mAb [1]: 1000 pM/min
FXa generation rate at 200 nM mAb [1]: 960 pM/min
Peak stimulatory activity relative to 224F3 [2]: 50.1 fold relative to 224F3

B3: mAb4-6934 (monovalent one-armed variant of mAb1-6723) (antibody, V domains shown)
VH: EVQLVQSGAEVKKPGESLRISCKGSGYSFTTSWIVWVRQMPGKGLEWMGMIDPSDSFTSYSPSFQGHVTISADKSISTAYLQWSSLKASDTAMYYCARLHYYHSEEFDVWGQGTLVTVSS
VL: EIVLTQSPGTLSLSPGERATLSCRASQSVSSSYLAWYQQKPGQAPRLLIYGASSRARGIPDRFSGSGSGTDFTLTISRLEPEDFAVYYCQQFGSSRLFTFGQGTKLEIK
notes: also called monovalent mAb1-6723
Binding (%) relative to wild-type [3]: 1%
Binding (%) relative to wild-type [4]: 81%
Binding (%) relative to wild-type [5]: 97%
Binding (%) relative to wild-type [6]: 114%
Binding (%) relative to wild-type [7]: 113%
Binding (%) relative to wild-type [8]: 99%
Binding (%) relative to wild-type [9]: 71%
Binding (%) relative to wild-type [10]: 51%
Binding (%) relative to wild-type [11]: 66%
Binding (%) relative to wild-type [12]: 102%
Binding (%) relative to wild-type [13]: 80%
Binding (%) relative to wild-type [14]: 28%
Binding (%) relative to wild-type [15]: 100%
Binding (%) relative to wild-type [16]: 66%
Binding (%) relative to wild-type [17]: 112%
Binding (%) relative to wild-type [18]: 23%
Binding (%) relative to wild-type [19]: 50%
